Experimental data from US20170239346A1, “NOVEL COCAINE HAPTENS AND NANOFIBER-BASED COCAINE VACCINES” (priority 2016, published 2017).
Residues, ends and D or L forms follow the SMILES beside them. *: point of attachment. X1 = COC(=O)[C@H]1[C@@H](OC(=O)c2ccccc2)C[C@@H]2CC[C@H]1N2CCCCC(=O)*

Experiment: Limulus amebocyte lysate (LAL) chromogenic end point endotoxin assay
Settings: same volume and concentration used for immunizations

In the case of `COC(=O)[C@H]1[C@@H](OC(=O)c2ccccc2)C[C@@H]2CC[C@H]1N2CCCCC(=O)NCC(=O)NCC(=O)NCC(=O)N[C@@H](Cc1ccccc1)C(=O)N[C@@H](CCCCN)C(=O)N[C@@H](Cc1ccccc1)C(=O)N[C@@H](CCC(=O)O)C(=O)N[C@@H](Cc1ccccc1)C(=O)N[C@@H](CCCCN)C(=O)N[C@@H](Cc1ccccc1)C(=O)N[C@@H](CCC(=O)O)C(N)=O` [CocKFE8] (X1-GGGFKFEFKFE-NH2), the endotoxin levels was “less than 0.1 EU/mL”.
